Experimental data as given in US5833943, “Minimum recognition unit of a pem mucin tandem repeat specific monoclonal antibody” (Cancer Therapeutics Limited, dated 1998).
No end group written: not given here.

Molecular target: mucin molecule associated with epithelial tumours (Homo sapiens (Human), UniProt P15941)
Test: synthetic CDR peptides of NM-2 VH; method not told at this place

REPPTRTFAYWG (also: I125 label, position not given here) [peptide REPPTRTFAYWG]
binding result: binds
